# Experimental data reported in the nanobody polyreactivity screen of Harvey et al. (2022).
# Test: yeast display, Sf9 membrane polyspecificity reagent, FACS + sequencing; frameworks hold sequencing errors
# Method in brief: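 Using colony PCR, genes from sorted yeast display clones were amplified, then sequenced on MiSeq at 2 × 250 and filtered by CDR length. The clones had been stained with 10% biotinylated, detergent-solubilized Sf9 membrane reagent for 1 hour at 4 °C and sorted by FACS into low and high (top ~1%) gates on anti-HA and streptavidin fluorescence. Polyreactivity labels come from the gate of origin.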
row,Sequence,polyreactivity (PSR sort gate)
1,QVQLVESGGGLLQAGGSLRLSCASSGRTFARYVMGWYRQAPGKERELVAAITRSGGSTYYADSVKGRFTISRDNAKNTVYLQMNSMKPEDTAVYYCAATLRWGLYNTFYSTFNVSYYYWGQGTQVTVSS,high polyreactivity
2,QVQLVESGGGLVQAGGSLRLSCAASGGICGYYAMGWYRQAPGKERELVAAISWTGGSTYYADSVKGRFTISRDNAKNTVYLQMNSLKPEDTAVYYCAASDSFGYDYWGQGTQVTVSS,high polyreactivity
3,QVQLVESGGGLFQAGGSLRISCAASGFIFSFYAMGWYRQAPGKERELVAAITSSGATTYYADSVKGSFTISRDNAKNTVYLQMNSLKPEDTAVYYCNAVYRRDTGYYRYYYWGQGTQVTVSS,high polyreactivity
4,QVQLVESGGGLVQAGGSLRLSCAASGRIFGLNAMGWSRQAPGKERELVASITYSGGSTYYADSVKGRFTISRDNAKNTVYLQMNSLKPEDTAVYYCAARIIVDDVGTKYYYWGQGTQVTVSS,high polyreactivity
5,QVQLVESAGGLVQAGGSLRLSCDASVSTFGYYAMGWYRQAPGKERELVAVIRRGGSTNYADSVKGRFTISRDNAKNTVYLQMNSLKPEDTAVYYCAKSQRGTVYSYYYWGQGNQVTVSS,high polyreactivity
6,QDQLVESGGGLVQAGGSLSLSCAASGSTFPYYAMGWSRPAPGKERELVAAISGSGGTTYYADSVKGRFTISRDNAKNTVYLQMNSLKPEDTAVYYCAVDIGVGYGYYYWGQGTQVTVSS,low polyreactivity
7,QVQLVESGGGLVQAGGSHRLSCAASGLTFSKYAMGWYRQAPGKERELVAAIRRSGGSTYYADSVKGRFTISRDNAKNTVYLQMNSLKPEDTAVYYCAADNYRYWNILRDYWGQGTQVTVSS,low polyreactivity
8,QVQLVESGGGLVKARGSLRLSFAASGSTFLVYAMGWYRQAPGKEREFVAAITWSGGYTYYADSVKGRFTISRDNAKNTVYLQMNSLKPEDTSVYYSAAEIQRTYSWEYPYEMYWGQGTQVTVSS,high polyreactivity
9,QVQLVESGGGLVQAGGSLRLSCAASGSIYRQYAMGWSRPAPGKERELVAASRRGTSTYYADSVKGRFTLSRDNAKNTVYLHMNSLKPDDSAVYYCAADTSWYSWWFDYWGQGTQVTVSS,low polyreactivity
10,QVQLVESGGGLVQAGGSLRLTCAASGSIFVNNAMGWYRQAPGKEMELVAAIRRSGGNTYYADSVKGRFTISRDNAKNTVYLQMNSLIPEDTAVYYCNVVRRADSIRAKSRDYWGQGTQVTVSS,high polyreactivity
11,QVQLVESGGGLVQAGGSLRLSCAASGNTFAGNAMGWYRQATGKERELVAAISWSGTRTYYADSVKGRFTISRDNAKNTVYLQMNSLKPEDTAVYYCAKLSTNKEYYWGQGTQVTVSS,high polyreactivity
12,QVQLVESGGGLVQAGGRLRLSCAASGRIFDTYAMGWYRQAPGKERELVASINWSAGSTYYADSVKGRFTISRDNAMNTVYLQMNSLKPEDTAVYYCATYSSYYWQSSYVYWEFDYWGQGTQVTVSS,high polyreactivity
13,QVQLVESGGGLVQAGGSLRLSCAASGSIFRVNTLGWYRQAPGKERELVATISSGARTNYADSVKGRFTISRDNAKNTVDLQLNSLKPEDTAVYYCAADRSWGYWGRSRYDYWGQGTQVTVSS,high polyreactivity
14,QVQLVESGGRIVQAGGSLRLSCAASGRIFWLNAMGRYRQAPGKEREFVASITYGSDSTYYADSVKGRFTISRDTATNTVYFQMNSLKPEDTAVYYCNREGWHYGPYGYWGQGTQVTVSS,low polyreactivity
15,QVQLVESGGGLVQAGGSLRLSCAASGSTFGPYTMGWKRPAPGKERELVATISSGGSTYYADSVKGRFTISRDNAKNTVYLQLNCLKPEDTAVYSCAKDFWYRSYDYWGQGTQVTLSS,low polyreactivity
16,QVQLVESGGGLVQAGGSLRLSCADSGSTFWLYAMGWYRQAPGKERELVASISSRGRSTYYADSVKGRFTISRDNAKNTVYLQMNSLKPEDTAVYYCAAKDIRYDDDYWGQGTQVTVSS,low polyreactivity
17,QVQLVDSGGGLVQAGGSLLLSCAASGFTFTIYAMGWNRQAPGKERELVATISGRAGRTYYADSVKGRFTISRDNAKNTVYLQMNSLKPEDTAVYYCNAGQWRYPGLYYYWGQGTQVTVSS,high polyreactivity
18,QVQLVESGGGLVQAGGSLRLSCAASGITFLNYAMGWYRQATGKERELVAANDTRGGRTNYADSVKGRFTISRDNAKNTVYLQMNSVKPEDTEVYYCYALGYYVHKMDYWGQGTQVTVSS,low polyreactivity
19,QVQLVESGGGLVQAGGSLRLSCAASGFIFSNYAMGWYRQAPGKERELVAAISWSGGNTYYADSVKGRFTISRDNAKNTFYLQMNSLKPEDTAVYYCNRVKAYYRWFLPRYQYNYWGQGTQVTVSS,high polyreactivity
20,QVQLVESGGGLVQAGGSLRLSCAASGFIFRRYAMGWYRQAPGKERELVAAITWSGGSTYYADSVKGRFTISRDNAKNTVYLQMNSLKPEDTAVYYCNRASLPSVWGYDYWGQGTQVTVSS,high polyreactivity
21,QVQLLESGGGLVHSGGSLRLSCASSGRIFPSNTMGSYRPAPGKERELVADISFGGGSTSYADSVKGRFTISRDNAKNTVYLQMNRLKPEDTAVYYCNADRDDDYDYWGQGTQVTLSS,low polyreactivity
22,QVQLVESGGGLVQAGGSLRLSCAASGSTFYPYAMGWYRPAHGKERELVAAITSRVGRTYYADSVKGRFTISRDNAKNTVYLQMNSLKPEDTAVYYCAAKIFIRVHYYSYRMYYWGQGTQVTVSS,low polyreactivity

row,Sequence,polyreactivity (PSR sort gate)
1,QVQLVESGGGLVQAGGSLRLSCAASGNIFDGYAMGWYRQAPGKERELVAAITSSAGSTYYADSVKGRFTISRDNAKNTVYLQMNSLKPEDTAVYYCNKVTKYRPIEGSWGQGTQVTVSS,high polyreactivity
2,QVQLVESGGGLVQAGGSLRLSCAASGRTFPIYAMGWYRQAPGKERELVAAITYSGGSTYYADSVKGRFTISRDNAKNTVYLQMNSLKPEDTAVYYCAVDGTKPYWHQRYDYWGQGTQVTVSS,low polyreactivity
3,QVQLVESGGGLVQAGGSLRLSCAASGRIFGVNAMGWYRQAPGKERELVAAITRRGGSTYADSVKGRFTISRDNAKNTVYLQMNSLKPEDTAVYYCNAESYYGIFRYKYDYWGQGTQVTVSS,high polyreactivity
4,QVQLVESGGGLVQAGGSLRLSCAASGRILGFYAMGWYRQAPGKEMELVARINWSGTRTYYADSVKGRFTISRDNAKNTVYLQMNSLKPEDTAVYYCAAERYPYGVTYSKLDYWGQGTQVTVSS,high polyreactivity
5,QVQLVESGGGLVQAGGSLRLSCAASGFTFRQNAMGWYRQAPGNERELVAVITKSAGSTYYADSVKGRFTISRDNAKNTVYLQMNSLKPEATAVYYCNKRQRFVSSCRRSQGIGWEDDYWGQGTQVTVSS,low polyreactivity
6,QVQLVESGGGLVQAGGSLRLSCAASGLTFYYYAMGWYRQAPGKERELVARISSGTSTYYADSVKGRFTISRDNAKNTVYLQMNCMKPEDTAVYYCTARRKLGSTHGPWGGLEYWGEGTQVTVSS,low polyreactivity
7,QVQVVESGGGLVQAGGSLRLICAASGSTFYSYAMGWYRQAPGKERELVAPISSSGVRTYYADSVKGRFTISRDNAKNTVFLQMISLKPEDTAVYYCNTYLKRYVGRGGPSYYWGQGTQVTVSS,high polyreactivity
8,QVQLVESGGGLVQAGGSLRLSCAASGSTFNRYAMGWYRQAPGKERELVADINSGGRTNYADSVKGRFTISRDNAKNTVYLQMNSLKPEDTAVYFCARRFQYWLSGGQYDYWGQGTQVTVSS,high polyreactivity
9,QFQLVESGGGLVQAGGSLRLSCAASGIIFHIYAMGWYRQAPGKERELVAAISTGSSTYYADSVKGRFTISRDNAKNTVYLQMNSLKPEDTSVSYCNAVSRYLWVKGFDYWGQGTQVTVSS,low polyreactivity
10,QVQLVESGGGLVQAGGSLRLSCAASGSIFYNYSMGWYRQAPGKERELVATITRSDGSTYYADSVKGRFTISRDNAKNTVYLQMNSLKPEDTAVYYCNADSLWDRAFGYYYWGQGTQVTVSS,low polyreactivity
11,QVQLVESGGGLVQAGGSLRLSCAASGFTFYSYAMGWYRQAPGKERELVAAISWSGTRTYYADSVKGRFTISRDIAKNTVYLQMNSLKPEDTAVYYCAARGYRYGYGYWGQGTQVTVSS,high polyreactivity
12,QVQLVESGGGLVQAGGILRLSCAASGRTFERNAMGWYRQSPGKEREFVAAITEIGGSTYYADSVKGRFTISRDNAKNTVYLQMNSLKPEDTAVYYCAKDGTYSPYDYWGQGTQVTVSS,low polyreactivity
13,QVQLVESGGGLVQAGGSLRLSCAASGSTLSGNAMGWYRQAPGKERELVAAIRWSGDITYYADSVKGRFTISRDNAKNTVYLQMNSLKPEDTAVYYCAATLGNRWFHYNYWGQGTQVTVSS,low polyreactivity
14,QVQLVESGGGLVQAGGSLRLSCAASGFIFNINTMGWYRQAPGKERELVAAITLNGDGTYYADSVKGRFTISRDNAKNTVDIQMNSLNPADTAVDYCNAATWYYYYVSRETYYFDVDYWGQGTQVTVSS,low polyreactivity
15,QVQLVESGGGLVQAGGSLRLSCAASGRIFIRDARGWYRPAPGKERELVAALTRGGSTYYADSVKGRFTISRDTAKNTVYLQMNSLKPEDTAVYYCAARVGYPYYYWGQGTQVTVSS,high polyreactivity
16,QVQLVESGGGLVQAGGSLRLSCAASGSIFVWYAMGWYRQEPGKERELVATISSRGGTTYYADSVKGRFTISRDNAKNTVYLQMNSLKPEDTAVYYCNAKRRAQYGYRVFRYDYWGQGTQVTVSS,high polyreactivity
17,QVQLVESGGGLVQAGGSLRLSCAASGSTFAVYAMGWYRQAPGKERELVAVISRGANTNYADSVKGRFTISRDNAKNTVYLQMNSLKPEDTAVYYCAAPSYFTHRGRFDYWGQGTQVTVSS,low polyreactivity
18,QVQLVESGGGLVQAGGSLRLSCAASGRIFGLYAMGWYRHAPGKEREFVAANNWDGGSTFYADSVKGRFTISRDNAKNTVYLQMNSLKPEDTAVYSCAADVYSYVSYSTYVSVFTYDYWGQGTQVTVSS,low polyreactivity
19,QVQLVESGGGLVQAGGSLRLSCAASGFIFGYYAMGWYRQAPGKERELVAAISWSGVSTYYADSVKGRFTISSDNAKNTVDLQMNSLKPEDTAVYYCAVGYVLTGVFQARFDYWGQGTQVTVSS,high polyreactivity
20,QVQLVESGGGLVQAGGILRLTCAASGSIFGTYAMGWYRTPPGKERELVSAITRRSGRTYYADSVKGRFTISRDNAKNTVNLQMNCLKQEDTAVYYCAKRPVIDDDYWGQGTQETVSS,high polyreactivity
21,QVQLVESGGGLVQAGGSLRLSCAASGLIFLVNAMGWYRQAPGKERELVAAIDRDGGITYADSVKGRFTISRDNAKNTVYLQMNSQKPEDTAVYYCAADPSSYGRFTYDYWGQGTQVTVSS,low polyreactivity
